Test results from US20040052799A1, “Nucleic acid and amino acid sequences relating to Helicobacter pylori for diagnostics and therapeutics” (Astra Aktiebolag, priority 1996, published 2004).

Experiments:
[1] = substrate: N[C@@H](CC=O)C(=O)O; test: Asd assay, reverse reaction, NADPH formation; assay type: biochemical, E. coli; details: other: pH 7.5
[2] = substrate: N[C@H](CCC(=O)O)C(=O)O; test: Glutamate racemase activity, conversion of D-glutamate to L-glutamate (two enzyme and single enzyme coupled assays); assay type: biochemical, H. pylori; details: other: purified recombinant enzyme; 37.0 °C
Experimental: The activity of glutamate racemase, interconversion of the enantiomers of glutamic acid, was measured using D-glutamic acid as substrate. The method of Gallo and Knowles (Gallo, K. A. and Knowles, J. R., 1993, Biochmistry 32, 3981-3990) that was used to measure the glutamate racemase activity of Lactobacillus fermenti was adapted for the measurement of glutamate racemase activity of the H. pylori murI gene product isolated as a recombinant protein from E. coli. […] Initial rates were determined by following the increase in absorbance at 500 nm in a reaction volume of 200 μl containing 50 mM Tris-HCl, pH 7.8, 4% v/v glycerol, 10 mM NAD, 2 mM INT, 60 Units/ml L-glutamate dehydrogenase, 5 Units/ml diaphorase, and varying concentrations of either substrate (from 0.063 mM to 250 mM D-glutamic acid) or purified enzyme (from 1 μg to 50 μg). After a preincubation of all reagents except either the substrate (D-glutamic acid) or the enzyme (murI gene product) for a period of 5 minutes, reactions were initiated by adding the missing ingredient (i.e., the enzyme or the subtrate, as required), and the increase in optical density at 500 nm was measured in a Microplate Spectophotometer System (Molecular Devices, Spectra MAX 250). Measurements were followed for 20 minutes, and initial velocities were derived by calculating the maximum slope for the absorbance increases. […]

B1: E. coli Asd (Escherichia coli K-12) (protein)
chain: MKNVGFIGWRGMVGSVLMQRMVEERDFDAIRPVFFSTSQLGQAAPSFGGTTGTLQDAFDLEALKALDIIVTCQGGDYTNEIYPKLRESGWQGYWIDAASSLRMKDDAIIILDPVNQDVITDGLNNGIRTFVGGNCTVSLMLMSLGGLFANDLVDWVSVATYQAASGGGARHMRELLTQMGHLYGHVADELATPSSAILDIERKVTTLTRSGELPVDNFGVPLAGSLIPWIDKQLDNGQSREEWKGQAETNKILNTSSVIPVDGLCVRVGALRCHSQAFTIKLKKDVSIPTVEELLAAHNPWAKVVPNDREITMRELTPAAVTGTLTTPVGRLRKLNMGPEFLSAFTVGDQLLWGAAEPLRRMLRQLA
notes: made in house; host or cells: E. coli HMS174 pLysS, pET28b
Km [1]: 104 µM

B2: H. pylori glutamate racemase (murI gene product) (Helicobacter pylori J99) (protein)
chain: MKIGVFDSGVGGFSVLKSLLKARLFDEIIYYGDSARVPYGTKDPTTIKQFGLEALDFFKPHEIELLIVACNTASALALEEMQKYSKIPIVGVIEPSILAIKRQVEDKNAPILVLGTKATIQSNAYDNALKQQGYLNISHLATSLFVPLIEESILEGELLETCMHYYFTPLEILPEVIILGCTHFPLIAQKIEGYFMGHFALPTPPLLIHSGDAIVEYLQQKYALKNNACTFPKVEFHASGDVIWLERQAKEWLKL
notes: made in house; host or cells: E. coli BL21(DE3) carrying pET-23-murI and pACYC-groE (GroES/GroEL co-expressed)
Km [2]: 100 µM
